In patent US20250295734A1, “ANTICOAGULANT PROTEINS AND THEIR USE FOR TREATING DISEASES ASSOCIATED WITH THE ACTIVATION OF NEUTROPHILS” (BIOXODES, priority 2018, published 2025):
Entries after “also recorded” stand apart in the source; their conditions may differ.

How the values were obtained:
FXIIa = target: T1, FXIIa (Homo sapiens, UniProt P00748); details: cited from earlier work
T1 construct: The resulting α-FXIIa has a heavy chain of 50 kDa, connected to a light chain of 28 kDa
T1 sequence (P00748 20-372 limits assumed): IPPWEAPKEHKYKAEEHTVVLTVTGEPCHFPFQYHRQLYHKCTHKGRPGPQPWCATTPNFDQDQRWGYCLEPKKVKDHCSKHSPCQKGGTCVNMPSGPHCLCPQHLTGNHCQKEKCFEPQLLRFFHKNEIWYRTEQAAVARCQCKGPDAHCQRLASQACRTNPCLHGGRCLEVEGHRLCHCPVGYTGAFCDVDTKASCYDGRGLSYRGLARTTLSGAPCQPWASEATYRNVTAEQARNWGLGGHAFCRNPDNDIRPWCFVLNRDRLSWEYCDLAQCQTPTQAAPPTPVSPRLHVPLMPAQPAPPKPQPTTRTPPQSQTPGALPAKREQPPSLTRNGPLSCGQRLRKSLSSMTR
T1 sequence (P00748 373-615 limits assumed): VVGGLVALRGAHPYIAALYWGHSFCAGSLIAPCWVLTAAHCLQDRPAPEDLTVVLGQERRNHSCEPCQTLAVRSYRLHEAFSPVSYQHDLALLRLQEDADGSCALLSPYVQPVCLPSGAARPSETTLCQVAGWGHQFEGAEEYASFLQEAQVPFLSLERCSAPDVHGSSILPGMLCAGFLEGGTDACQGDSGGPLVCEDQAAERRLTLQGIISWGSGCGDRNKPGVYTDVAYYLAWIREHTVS

[1] = test system: neutrophils isolated from the bone marrow of femurs of mice; assay: In vitro NETosis assay; assay type: cell-based, mice (C57BL/6); details: PMNs primed with TNFα, activated with PAF
Protocol: Neutrophils were isolated from the bone marrow of femurs of mice (C57BL/6) as previously described (Hu 2012) using FR-1-coupled magnetic beads (anti-Ly6G Microbead Kit, Miltenyi Biotec).
Cells were harvested, centrifugated and incubated during 30 min with or without 2 ng/ml of TNFα in Hanks solution (Gibco). Neutrophils were seeded on slides coated with poly-L-lysine and incubated at 37° C. for 1 h in Hanks solution. Next, neutrophils were activated with or without 25 μM of platelet-activating factor (PAF)±Ir-CPI (0.65 or 2 μM) in Hanks solution (3 h at 37° C.). NET formation was assessed by immunofluorescence (fluorescent microscope from Leica) after fixation of neutrophils with 4% PAF (paraformaldehyde) and fluorescent labelling of citrullinated histones (H3 antibody) and nuclei (Hoechst). Processing and analysis of images was performed using the FIJI software.
Percentage of NETosis (median) was presented for 5 independent experiments. A Wilcoxon test was used for statistical analysis (ns: not significant; *p<0.05; **p<0.01; ***p<0.001). […]

Factor Xa = Factor Xa (Homo sapiens, UniProt P00742); details: cited from earlier work
FXII zymogen = target: T2, FXII zymogen (Homo sapiens, UniProt P00748); details: cited from earlier work
T2 sequence (P00748 20-615): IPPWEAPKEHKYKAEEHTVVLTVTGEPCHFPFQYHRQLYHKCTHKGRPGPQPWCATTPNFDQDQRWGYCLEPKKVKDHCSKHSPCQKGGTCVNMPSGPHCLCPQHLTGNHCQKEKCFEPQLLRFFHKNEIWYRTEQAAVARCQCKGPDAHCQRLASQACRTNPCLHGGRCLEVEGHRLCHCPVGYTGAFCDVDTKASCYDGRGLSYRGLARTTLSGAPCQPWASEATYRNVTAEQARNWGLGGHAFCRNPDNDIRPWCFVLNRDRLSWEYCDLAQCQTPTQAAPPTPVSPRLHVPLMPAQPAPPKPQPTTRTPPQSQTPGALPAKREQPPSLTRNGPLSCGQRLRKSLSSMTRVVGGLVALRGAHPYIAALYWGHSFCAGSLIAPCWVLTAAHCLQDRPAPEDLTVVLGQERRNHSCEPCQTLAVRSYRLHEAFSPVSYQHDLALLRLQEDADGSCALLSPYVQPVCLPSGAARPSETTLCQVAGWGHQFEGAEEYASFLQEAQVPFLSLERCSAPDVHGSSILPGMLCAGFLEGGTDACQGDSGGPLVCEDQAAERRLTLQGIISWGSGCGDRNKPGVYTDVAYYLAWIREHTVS

prekallikrein (PK) = prekallikrein (PK) (Homo sapiens, UniProt P03952); details: cited from earlier work
[2] = test system: thrombin generation induced by ellagic acid (intrinsic pathway activator); details: cited from earlier work
kallikrein = kallikrein (Homo sapiens, UniProt P03952); details: cited from earlier work
Factor XIIa = target: T3, Factor XIIa (Homo sapiens, UniProt P00748); details: cited from earlier work
T3 construct: The resulting α-FXIIa has a heavy chain of 50 kDa, connected to a light chain of 28 kDa
T3 sequence (P00748 20-372 limits assumed): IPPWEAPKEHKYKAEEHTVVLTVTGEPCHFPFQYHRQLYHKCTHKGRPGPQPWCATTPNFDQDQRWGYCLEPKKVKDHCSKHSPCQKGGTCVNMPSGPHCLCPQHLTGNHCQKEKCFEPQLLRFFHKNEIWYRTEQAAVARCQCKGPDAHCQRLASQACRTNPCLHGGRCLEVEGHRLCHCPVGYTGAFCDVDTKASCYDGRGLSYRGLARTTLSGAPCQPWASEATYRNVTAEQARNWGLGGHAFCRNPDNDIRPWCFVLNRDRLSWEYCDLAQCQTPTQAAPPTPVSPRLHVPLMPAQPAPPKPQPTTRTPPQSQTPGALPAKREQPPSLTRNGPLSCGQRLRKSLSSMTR
T3 sequence (P00748 373-615 limits assumed): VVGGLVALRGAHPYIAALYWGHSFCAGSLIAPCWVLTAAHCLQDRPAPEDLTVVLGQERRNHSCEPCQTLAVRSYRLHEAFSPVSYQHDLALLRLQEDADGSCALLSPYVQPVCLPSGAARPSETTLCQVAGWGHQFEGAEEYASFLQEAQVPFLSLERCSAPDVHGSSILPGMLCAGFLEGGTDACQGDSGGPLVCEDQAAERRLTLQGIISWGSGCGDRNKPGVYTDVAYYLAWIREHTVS

[3] = Tail bleeding time assessment; assay type: in vivo, mice (C57BL/6JRj)
Protocol: Tail bleeding time assessment under NaCl or Ir-CPI treatment (Low or High dose) was performed as previously described (Mezouar et al., 2015) on anesthetized wild-type (i.e. cancer-free) or cancer-bearing mice. Briefly, a 1- to 3-mm portion of the distal tail was removed from mice; the tail was immersed in isotonic saline (37° C.), and the time to complete cessation of blood flow recorded. The bleeding time was monitored for a maximum of 10 min.

Chain of Factor Xa (P00742 41-179 limits assumed): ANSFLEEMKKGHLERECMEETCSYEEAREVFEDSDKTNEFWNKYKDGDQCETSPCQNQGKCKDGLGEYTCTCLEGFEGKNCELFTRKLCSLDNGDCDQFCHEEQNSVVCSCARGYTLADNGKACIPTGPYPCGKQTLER
Chain of Factor Xa (P00742 235-488 limits assumed): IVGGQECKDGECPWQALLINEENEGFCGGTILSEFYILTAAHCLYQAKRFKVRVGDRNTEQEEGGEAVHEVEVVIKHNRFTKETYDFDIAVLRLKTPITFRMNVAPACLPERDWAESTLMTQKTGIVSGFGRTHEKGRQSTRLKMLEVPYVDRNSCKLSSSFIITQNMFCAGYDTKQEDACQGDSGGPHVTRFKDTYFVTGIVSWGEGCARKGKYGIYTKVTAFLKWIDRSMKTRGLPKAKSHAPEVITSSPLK
Chain of kallikrein (P03952 20-390 limits assumed): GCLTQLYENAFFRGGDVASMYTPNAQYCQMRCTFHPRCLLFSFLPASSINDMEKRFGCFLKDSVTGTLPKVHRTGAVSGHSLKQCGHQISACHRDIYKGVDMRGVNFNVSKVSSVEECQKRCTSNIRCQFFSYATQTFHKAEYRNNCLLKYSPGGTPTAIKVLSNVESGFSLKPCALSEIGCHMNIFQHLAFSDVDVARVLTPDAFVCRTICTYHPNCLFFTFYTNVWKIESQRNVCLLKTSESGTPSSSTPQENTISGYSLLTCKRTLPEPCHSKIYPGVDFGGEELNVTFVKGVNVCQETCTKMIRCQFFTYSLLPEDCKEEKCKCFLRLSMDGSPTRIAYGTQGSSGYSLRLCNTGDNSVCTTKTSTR
Chain of kallikrein (P03952 391-638 limits assumed): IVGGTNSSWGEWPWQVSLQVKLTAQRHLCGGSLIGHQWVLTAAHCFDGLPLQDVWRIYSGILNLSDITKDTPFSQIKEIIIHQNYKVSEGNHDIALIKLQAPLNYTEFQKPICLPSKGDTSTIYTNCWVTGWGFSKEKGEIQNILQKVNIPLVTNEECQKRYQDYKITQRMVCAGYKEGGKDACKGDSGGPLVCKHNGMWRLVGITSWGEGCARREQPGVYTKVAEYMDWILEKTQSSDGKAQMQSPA
Chain of prekallikrein (PK) (P03952 20-638): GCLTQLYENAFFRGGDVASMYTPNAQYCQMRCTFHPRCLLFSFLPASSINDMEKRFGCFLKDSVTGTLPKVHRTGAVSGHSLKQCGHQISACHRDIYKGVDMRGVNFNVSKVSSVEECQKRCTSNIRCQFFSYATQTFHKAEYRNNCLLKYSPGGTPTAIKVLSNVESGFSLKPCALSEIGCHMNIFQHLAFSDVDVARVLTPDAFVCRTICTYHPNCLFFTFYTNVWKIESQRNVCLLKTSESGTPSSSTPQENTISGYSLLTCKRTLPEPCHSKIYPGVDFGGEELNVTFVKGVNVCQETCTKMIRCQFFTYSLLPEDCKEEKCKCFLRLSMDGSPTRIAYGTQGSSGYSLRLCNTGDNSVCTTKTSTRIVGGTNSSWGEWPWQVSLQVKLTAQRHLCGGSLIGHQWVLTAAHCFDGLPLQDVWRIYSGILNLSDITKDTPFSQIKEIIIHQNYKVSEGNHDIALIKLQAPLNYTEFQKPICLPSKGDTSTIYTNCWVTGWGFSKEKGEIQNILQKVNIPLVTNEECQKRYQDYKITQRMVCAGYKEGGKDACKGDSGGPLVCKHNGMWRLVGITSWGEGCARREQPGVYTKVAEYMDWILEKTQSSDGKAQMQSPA

B1: Ir-CPI: Ixodes ricinus salivary gland polypeptide, contact phase inhibitor, MW=7660 Da; sequence SEQ ID NO: 1 or SEQ ID NO: 2 (protein)
chain: ANHKGRGRPAKCKLPPDDGPCRARIPSYYFDRKTKTCKEFMYGGCEGNENNFENITTCQEECRAKKV
binding to FXIIa (FXIIa): binds
percentage of NET formation ([1]; Ir-CPI 0.65 μM, *p<0.05 vs TNFα and PAF): significant reduction
percentage of NET formation ([1]; Ir-CPI 2 μM, ***p<0.001 vs TNFα and PAF): significant reduction
activity on Factor Xa (Factor Xa): totally inactive
binding to FXII zymogen (FXII zymogen): but not to their zymogen forms; also recorded: unable to bind directly
binding to prekallikrein (PK) (prekallikrein (PK)): unable to bind
thrombin generation [2]: strong dose-dependent reduction
binding to kallikrein (kallikrein): binds
activation of Factor XI by Factor XIIa (Factor XIIa): inhibit activation
activation of PK by Factor XIIa (Factor XIIa): inhibit activation
tail bleeding time compared to NaCl-treated mice ([3]; High dose (20.5 mg/kg + 3.7 mg/kg/h), cancer-bearing mice): No significant effect
tail bleeding time compared to NaCl-treated mice ([3]; High dose (20.5 mg/kg + 3.7 mg/kg/h), cancer-free mice): No significant effect
tail bleeding time compared to NaCl-treated mice ([3]; Low dose (10.3 mg/kg + 1.9 mg/kg/h), cancer-bearing mice): No significant effect
tail bleeding time compared to NaCl-treated mice ([3]; Low dose (10.3 mg/kg + 1.9 mg/kg/h), cancer-free mice): No significant effect
